Experimental data published in patent US20240400708A1.
Residue numbers refer to the chain shown, from its start. Numbers in names are those of the source.

Assays:
[1] = target: feline FcRn complex (FcRn-α subunit and β-microglobulin) (feline); assay: SPR (Biacore), FcRn on SA chip, pH 6
[2] = target: feline FcRn complex (FcRn-α subunit and β-microglobulin) (feline); assay: SPR (Biacore), FcRn on SA chip, pH 7.4

B1: feline IgG1a mutant ID No. 335: T250Q, S252H (antibody, part only; not given: Variable domains, not shown: another chain or arm of the molecule)
constant: ASTTAPSVFPLAPSCGTTSGATVALACLVLGYFPEPVTVSWNSGALTSGVHTFPAVLQASGLYSLSSMVTVPSSRWLSDTFTCNVAHPPSNTKVDKTVRKTDHPPGPKPCDCPKCPPPEMLGGPSIFIFPPKPKDQLHISRTPEVTCLVVDLGPDDSDVQITWFVDNTQVYTAKTSPREEQFNSTYRVVSVLPILHQDWLKGKEFKCKVNSKSLPSPIERTISKAKGQPHEPQVYVLPPAQEELSRNKVSVTCLIKSFHPPDIAVEWEITGQPEPENNYRTTPPQLDSDGTYFVYSKLSVDRSHWQRGNTYTCSVSHEALHSHHTQKSLTQSPGK
- Kd [1]: 8.02 nM
- Kd [2]: 36.9 nM

B2: feline IgG1a mutant ID No. 336: S252Y, S428M, S434F, A431K (antibody, part only; not given: Variable domains, not shown: another chain or arm of the molecule)
constant: B1 constant with Q136T, H138Y, S316M, A319K, S322F
- Kd [1]: 0.0359 nM
- Kd [2]: 7.28 nM

B3: feline IgG1a mutant ID No. 337: S252Y, S428M, S434F, D312H (antibody, part only; not given: Variable domains, not shown: another chain or arm of the molecule)
constant: B1 constant with Q136T, H138Y, D198H, S316M, S322F
- Kd [1]: 0.0272 nM
- Kd [2]: 8.96 nM

B4: feline IgG1a mutant ID No. 338: S252Y, S428M, S434F, D399T (antibody, part only; not given: variable domains and light chain, not shown: another chain or arm of the molecule)
constant: B1 constant with Q136T, H138Y, D287T, S316M, S322F
- Kd [1]: 0.0272 nM
- Kd [2]: 13.8 nM

B5: feline IgG1a mutant ID No. 339: S252Y, S428M, S434F, P247L (antibody, part only; not given: Variable domains, not shown: another chain or arm of the molecule)
constant: B1 constant with P133L, Q136T, H138Y, S316M, S322F
- Kd [1]: 0.0168 nM
- Kd [2]: 6.73 nM

B6: feline IgG1a mutant ID No. 340: S252Y, S428M, S434F, Q311R (antibody, part only; not given: Variable domains, not shown: another chain or arm of the molecule)
constant: B1 constant with Q136T, H138Y, Q197R, S316M, S322F
- Kd [1]: 0.025 nM
- Kd [2]: 3.3 nM

B7: feline IgG1a mutant ID No. 341: S252Y, S428M, S434F, D312A (antibody, part only; not given: Variable domains, not shown: another chain or arm of the molecule; small tags and cut ends)
constant: B1 constant with Q136T, H138Y, D198A, S316M, S322F
- Kd [1]: 0.0353 nM
- Kd [2]: 6.5 nM

B8: feline IgG1a mutant ID No. 342: S252Y, S428M, S434F, D312P (antibody, part only; not given: Variable domains, not shown: another chain or arm of the molecule; small tags and cut ends)
constant: B1 constant with Q136T, H138Y, D198P, S316M, S322F
- Kd [1]: 0.0063 nM
- Kd [2]: 3.29 nM

B9: feline IgG1a mutant ID No. 343: S252Y, S428M, S434F, D399M (antibody, part only; not given: Variable domains, not shown: another chain or arm of the molecule; small tags and cut ends)
constant: B1 constant with Q136T, H138Y, D287M, S316M, S322F
- Kd [1]: 0.041 nM
- Kd [2]: 10.9 nM

B10: feline IgG1a mutant ID No. 344: S252Y, S428M, S434F, D401R (antibody, part only; not given: Variable domains, not shown: another chain or arm of the molecule)
constant: B1 constant with Q136T, H138Y, D289R, S316M, S322F
- Kd [1]: 0.0128 nM
- Kd [2]: 11 nM

B11: feline IgG1a mutant ID No. 345: S252Y, S428M, S434F, E430I (antibody, part only; not given: Variable domains, not shown: another chain or arm of the molecule)
constant: B1 constant with Q136T, H138Y, S316M, E318I, S322F
- Kd [1]: 0.0227 nM
- Kd [2]: 11.5 nM

B12: feline IgG1a mutant ID No. 346: S252Y, S428M, S434F, G402R (antibody, part only; not given: Variable domains, not shown: another chain or arm of the molecule)
constant: B1 constant with Q136T, H138Y, G290R, S316M, S322F
- Kd [1]: 0.0404 nM
- Kd [2]: 9.95 nM

B13: feline IgG1a mutant ID No. 347: S252Y, S428M, S434F, L314K (antibody, part only; not given: variable domains and light chain, not shown: another chain or arm of the molecule)
constant: B1 constant with Q136T, H138Y, L200K, S316M, S322F
- Kd [1]: 0.0567 nM
- Kd [2]: 10.5 nM

B14: feline IgG1a mutant ID No. 348: S252Y, S428M, S434F, Q311H (antibody, part only; not given: Variable domains, not shown: another chain or arm of the molecule)
constant: B1 constant with Q136T, H138Y, Q197H, S316M, S322F
- Kd [1]: 0.00949 nM
- Kd [2]: 10.8 nM

B15: feline IgG1a mutant ID No. 349: S252Y, S428M, S434F, Q311K (antibody, part only; not given: variable domains and light chain, not shown: another chain or arm of the molecule)
constant: B1 constant with Q136T, H138Y, Q197K, S316M, S322F
- Kd [1]: 0.0192 nM
- Kd [2]: 4.78 nM

B16: feline IgG1a mutant ID No. 351: S252Y, S428M, S434F, Q311W (antibody, part only; not given: Variable domains, not shown: another chain or arm of the molecule)
constant: B1 constant with Q136T, H138Y, Q197W, S316M, S322F
- Kd [1]: 0.011 nM
- Kd [2]: 3.35 nM

B17: feline IgG1a mutant ID No. 352: S252Y, S428M, S434F, Q311Y (antibody, part only; not given: Variable domains, not shown: another chain or arm of the molecule)
constant: B1 constant with Q136T, H138Y, Q197Y, S316M, S322F
- Kd [1]: 0.0271 nM
- Kd [2]: 6.48 nM

B18: feline IgG1a mutant ID No. 354: S252Y, S428M, S434F, T250Q (antibody, part only; not given: variable domains and light chain, not shown: another chain or arm of the molecule)
constant: B1 constant with H138Y, S316M, S322F
- Kd [1]: 0.0192 nM
- Kd [2]: 4.46 nM

B19: feline IgG1a mutant ID No. 355: S252Y, S428M, S434F, T256M (antibody, part only; not given: variable domains and light chain, not shown: another chain or arm of the molecule)
constant: B1 constant with Q136T, H138Y, T142M, S316M, S322F
- Kd [1]: 0.0964 nM
- Kd [2]: 15.7 nM

B20: feline IgG1a mutant ID No. 356: S252Y, S428M, S434F, T403R (antibody, part only; not given: Variable domains, not shown: another chain or arm of the molecule)
constant: B1 constant with Q136T, H138Y, T291R, S316M, S322F
- Kd [1]: 0.0249 nM
- Kd [2]: 9.98 nM

B21: feline IgG1a mutant ID No. 359: S252Y, S434R, D312A (antibody, part only; not given: variable domains and light chain, not shown: another chain or arm of the molecule)
constant: B1 constant with Q136T, H138Y, D198A, S322R
- Kd [1]: 0.626 nM
- Kd [2]: 25.3 nM

B22: feline IgG1a mutant ID No. 360: S252Y, S434R, D312H (antibody, part only; not given: Variable domains, not shown: another chain or arm of the molecule)
constant: B1 constant with Q136T, H138Y, D198H, S322R
- Kd [1]: 1.09 nM
- Kd [2]: 43.1 nM

B23: feline IgG1a mutant ID No. 361: S252Y, S434R, D312P (antibody, part only; not given: Variable domains, not shown: another chain or arm of the molecule)
constant: B1 constant with Q136T, H138Y, D198P, S322R
- Kd [1]: 0.188 nM
- Kd [2]: 20.7 nM

B24: feline IgG1a mutant ID No. 362: S252Y, S434R, D399M (antibody, part only; not given: Variable domains, not shown: another chain or arm of the molecule)
constant: B1 constant with Q136T, H138Y, D287M, S322R
- Kd [1]: 1.14 nM
- Kd [2]: 43.6 nM

B25: feline IgG1a mutant ID No. 363: S252Y, S434R, D399T (antibody, part only; not given: Variable domains, not shown: another chain or arm of the molecule)
constant: B1 constant with Q136T, H138Y, D287T, S322R
- Kd [1]: 0.923 nM
- Kd [2]: 38.9 nM

B26: feline IgG1a mutant ID No. 364: S252Y, S434R, D401R (antibody, part only; not given: Variable domains, not shown: another chain or arm of the molecule)
constant: B1 constant with Q136T, H138Y, D289R, S322R
- Kd [1]: 0.732 nM
- Kd [2]: 24.4 nM

B27: feline IgG1a mutant ID No. 367: S252Y, S434R, G402R (antibody, part only; not given: Variable domains, not shown: another chain or arm of the molecule)
constant: B1 constant with Q136T, H138Y, G290R, S322R
- Kd [1]: 0.885 nM
- Kd [2]: 44.8 nM
